We go through 33 molecules from patent US20210388110A1 (published 2021).

By Kd is commonly meant the constant that tells how readily two partners part at equilibrium. A low value points to tighter binding.

Substitutions are numbered along the chain they refer to.

This test concerns the target T1, soluble human CD3ε chain (human, UniProt P07766 23-126, limits assumed).
T1 construct: also called human CD3 epsilon chain
Nature of the test: SPR (Biacore), soluble human CD3ε chain.

T1 sequence (P07766 23-126 limits assumed): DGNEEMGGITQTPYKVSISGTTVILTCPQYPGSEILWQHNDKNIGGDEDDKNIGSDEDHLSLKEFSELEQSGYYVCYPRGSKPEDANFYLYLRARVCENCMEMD

B1: TR01H067-E22Hh/none-Hi-Kn010G3/L0215-k0 (antibody, human IgG1, kappa, L234A L235A, N297A)
heavy: QVQLVESGGGLVQPGRSLRLSCAASGFTFSNAWMHWVRQAPGKGLEWVAQIKDKSQNYATYYAESVKGRFTISRDDSKNSLYLQMNSLKTEDTAVYYCRYVHYAASYGVDAWGQGTTVTVSSASTKGPSVFPLAPSSKSTSGGTAALGCLVKDYFPEPVTVSWNSGALTSGVHTFPAVLQSSGLYSLSSVVTVPSSSLGTQTYICNVNHKPSNTKVDKKVEPKSCDKTHTCPPCPAPEAAGGPSVFLFPPKPKDTLMISRTPEVTCVVVDVSHEDPEVKFNWYVDGVEVHNAKTKPREEQYASTYRVVSVLTVLHQDWLNGKEYKCKVSNKALPAPIEKTISKAKGQPREPQVYTLPPSRCELTKNQVSLSCAVKGFYPSDIAVEWESNGQPENNYKTTPPVLDSDGSFFLVSKLTVDKSRWQQGNVFSCSVMHEALHNHYTQKSLSLSPDYKDDDDK
chain: EPKSSDKTHTCPPCPAPELLGGPSVFLFPPKPKDTLMISRTPEVTCVVVDVSHEDPEVKFNWYVDGVEVHNAKTKPREEQYNSTYRVVSVLTVLHQDWLNGKEYKCKVSNKALPAPIEKTISKAKGQPREPQVCTLPPSRDELTKNQVSLWCLVKGFYPSDIAVEWESNGQPENNYKTTPPVLDSDGSFFLYSKLTVDKSRWQQGNVFSCSVMHEALHNRYTQKSLSLSP
light: DIVMTQSPLSLPVTPGEPASISCRSSQPPVHSNRNTYIHWYQQKPGQAPRLLIYKVSNRFSGVPDRFSGSGSGTDFTLKISRVEAEDVGVYYCGQGTQVPYTFGQGTKLEIKRTVAAPSVFIFPPSDEQLKSGTASVVCLLNNFYPREAKVQWKVDNALQSGNSQESVTEQDSKDSTYSLSSTLTLSKADYEKHKVYACEVTHQGLSSPVTKSFNRGEC
notes: one-arm antibody (single Fab) with Fab-less hinge-Fc chain Hi-Kn010G3
As for B1, the Kd was 74.1 nM.

B2: TR01H090-E22Hh/none-Hi-Kn010G3/L0011-k0 (antibody, human IgG1, kappa, L234A L235A, N297A)
heavy: B1 heavy with R16G, S106G
chain: B1 chain
light: B1 light with P29L, I38L
notes: as for B1
In turn, B2 had a Kd of 69.5 nM.

B3: TR01H105-E22Hh/none-Hi-Kn010G3/L0011-k0 (antibody, human IgG1, kappa, L234A L235A, N297A)
heavy: B1 heavy with Y62L, S106G
chain: B1 chain
light: B1 light with P29L, I38L
notes: as for B1
Take B3: binding was put at a Kd of 69.5 nM.

B4: TR01H082-E22Hh/none-Hi-Kn010G3/L0272-k0 (antibody, human IgG1, kappa, L234A L235A, N297A)
heavy: B1 heavy with S106G
chain: B1 chain
light: B1 light with P29L, N35Q, I38L
notes: as for B1
Turning to B4, the affinity, expressed as Kd, was 74.4 nM.

B5: TR01H107-E22Hh/none-Hi-Kn010G3/L0011-k0 (antibody, human IgG1, kappa, L234A L235A, N297A)
heavy: B1 heavy with Y62Q, S106G
chain: B1 chain
light: B1 light with P29L, I38L
notes: as for B1
In turn, B5 showed a Kd of 69.1 nM.

B6: TR01H067-E22Hh/none-Hi-Kn010G3/TR01L015-k0 (antibody, human IgG1, kappa, L234A L235A, N297A)
heavy: B1 heavy
chain: B1 chain
light: B1 light with P28S, I38L, Q42L, A48S, R50Q
notes: as for B1
B6: the Kd is 86.4 nM.

B7: TR01H103-E22Hh/none-Hi-Kn010G3/L0011-k0 (antibody, human IgG1, kappa, L234A L235A, N297A)
heavy: B1 heavy with Y62G, S106G
chain: B1 chain
light: B1 light with P29L, I38L
notes: as for B1
In turn, B7 came in with a Kd of 77.2 nM.

B8: TR01H099-E22Hh/none-Hi-Kn010G3/L0011-k0 (antibody, human IgG1, kappa, L234A L235A, N297A)
heavy: B1 heavy with T60Q, S106G
chain: B1 chain
light: B1 light with P29L, I38L
notes: as for B1
In the case of B8, the dissociation constant Kd was found to be 77.4 nM.

B9: TR01H067-E22Hh/none-Hi-Kn010G3/L0226-k0 (antibody, human IgG1, kappa, L234A L235A, N297A)
heavy: B1 heavy
chain: B1 chain
light: B1 light with P28S, G94I
notes: as for B1
Take B9: the Kd amounted to 132 nM.

B10: TR01H067-E22Hh/none-Hi-Kn010G3/TR01L018-k0 (antibody, human IgG1, kappa, L234A L235A, N297A)
heavy: B1 heavy
chain: B1 chain
light: B1 light with R24Q, S25A, Q27E, P28S, I38L, Q42L, A48S, R50Q
notes: as for B1
B10 had a Kd of 52.6 nM.

B11: TR01H097-E22Hh/none-Hi-Kn010G3/L0011-k0 (antibody, human IgG1, kappa, L234A L235A, N297A)
heavy: B1 heavy with T60L, S106G
chain: B1 chain
light: B1 light with P29L, I38L
notes: as for B1
With B11, the dissociation constant Kd was 87.6 nM.

B12: TR01H082-E22Hh/none-Hi-Kn010G3/L0271-k0 (antibody, human IgG1, kappa, L234A L235A, N297A)
heavy: B1 heavy with S106G
chain: B1 chain
light: B1 light with N35Q, I38L
notes: as for B1
B12 came in with a Kd of 68.2 nM.

B13: TR01H082-E22Hh/none-Hi-Kn010G3/L0268-k0 (antibody, human IgG1, kappa, L234A L235A, N297A)
heavy: B1 heavy with S106G
chain: B1 chain
light: B1 light with P28S, H39Q, G94V
notes: as for B1
B13 registered a Kd of 136 nM.

B14: TR01H092-E22Hh/none-Hi-Kn010G3/L0011-k0 (antibody, human IgG1, kappa, L234A L235A, N297A)
heavy: B1 heavy with K67A, S106G
chain: B1 chain
light: B1 light with P29L, I38L
notes: as for B1
The molecule B14 displayed a Kd of 72.1 nM.

B15: TR01H067-E22Hh/none-Hi-Kn010G3/L0222-k0 (antibody, human IgG1, kappa, L234A L235A, N297A)
heavy: B1 heavy
chain: B1 chain
light: B1 light with P28S, H39Q, G94Y
notes: as for B1
On to B15, for which the Kd was found to be 76.3 nM.

B16: TR01H095-E22Hh/none-Hi-Kn010G3/L0011-k0 (antibody, human IgG1, kappa, L234A L235A, N297A)
heavy: B1 heavy with T60F, S106G
chain: B1 chain
light: B1 light with P29L, I38L
notes: as for B1
Turning to B16, binding was put at a Kd of 90.9 nM.

B17: TR01H094-E22Hh/none-Hi-Kn010G3/L0011-k0 (antibody, human IgG1, kappa, L234A L235A, N297A)
heavy: B1 heavy with K67S, S106G
chain: B1 chain
light: B1 light with P29L, I38L
notes: as for B1
With B17, the affinity, expressed as Kd, was 70 nM.

B18: TR01H101-E22Hh/none-Hi-Kn010G3/L0011-k0 (antibody, human IgG1, kappa, L234A L235A, N297A)
heavy: B1 heavy with T60V, S106G
chain: B1 chain
light: B1 light with P29L, I38L
notes: as for B1
As for B18, the Kd was 78.7 nM.

B19: TR01H075-E22Hh/none-Hi-Kn010G3/L0000-k0 (antibody, human IgG1, kappa, L234A L235A, N297A)
heavy: B1 heavy with A111Y
chain: B1 chain
light: B1 light with P28S, P29L, I38L
notes: as for B1
B19 had a Kd of 98.8 nM.

B20: TR01H106-E22Hh/none-Hi-Kn010G3/L0011-k0 (antibody, human IgG1, kappa, L234A L235A, N297A)
heavy: B1 heavy with Y62P, S106G
chain: B1 chain
light: B1 light with P29L, I38L
notes: as for B1
Turning to B20, the Kd is 100 nM.

B21: TR01H082-E22Hh/none-Hi-Kn010G3/L0270-k0 (antibody, human IgG1, kappa, L234A L235A, N297A)
heavy: B1 heavy with S106G
chain: B1 chain
light: B1 light with P28S, P29L, N35Q, I38L
notes: as for B1
Regarding B21, binding was put at a Kd of 74.2 nM.

B22: TR01H096-E22Hh/none-Hi-Kn010G3/L0011-k0 (antibody, human IgG1, kappa, L234A L235A, N297A)
heavy: B1 heavy with T60G, S106G
chain: B1 chain
light: B1 light with P29L, I38L
notes: as for B1
Molecule B22 displayed a Kd of 74.7 nM.

B23: TR01H082-E22Hh/none-Hi-Kn010G3/TR01L017-k0 (antibody, human IgG1, kappa, L234A L235A, N297A)
heavy: B1 heavy with S106G
chain: B1 chain
light: B1 light with P28S, H39Q, Q42L, A48S, R50Q, G94Y
notes: as for B1
On to B23, for which the Kd stood at 109 nM.

B24: TR01H093-E22Hh/none-Hi-Kn010G3/L0011-k0 (antibody, human IgG1, kappa, L234A L235A, N297A)
heavy: B1 heavy with K67Q, S106G
chain: B1 chain
light: B1 light with P29L, I38L
notes: as for B1
B24 had a Kd of 68 nM.

B25: TR01H068-E22Hh/none-Hi-Kn010G3/L0000-k0 (antibody, human IgG1, kappa, L234A L235A, N297A)
heavy: B1 heavy with L11V, R16G
chain: B1 chain
light: B1 light with P28S, P29L, I38L
notes: as for B1
For the molecule B25, the Kd was found to be 101 nM.

B26: TR01H067-E22Hh/none-Hi-Kn010G3/L0248-k0 (antibody, human IgG1, kappa, L234A L235A, N297A)
heavy: B1 heavy
chain: B1 chain
light: B1 light with S25P, P28S, H39Q, G94Y
notes: as for B1
B26 had a Kd of 139 nM.

B27: TR01H082-E22Hh/none-Hi-Kn010G3/L0222-k0 (antibody, human IgG1, kappa, L234A L235A, N297A)
heavy: B1 heavy with S106G
chain: B1 chain
light: B1 light with P28S, H39Q, G94Y
notes: as for B1
Regarding B27, binding was put at a Kd of 101 nM.

B28: TR01H098-E22Hh/none-Hi-Kn010G3/L0011-k0 (antibody, human IgG1, kappa, L234A L235A, N297A)
heavy: B1 heavy with T60P, S106G
chain: B1 chain
light: B1 light with P29L, I38L
notes: as for B1
Regarding B28, the Kd was found to be 91.4 nM.

B29: TR01H091-E22Hh/none-Hi-Kn010G3/L0011-k0 (antibody, human IgG1, kappa, L234A L235A, N297A)
heavy: B1 heavy with R19K, S106G
chain: B1 chain
light: B1 light with P29L, I38L
notes: as for B1
The molecule B29 had a Kd of 66.7 nM.

B30: TR01H082-E22Hh/none-Hi-Kn010G3/TR01L020-k0 (antibody, human IgG1, kappa, L234A L235A, N297A)
heavy: B1 heavy with S106G
chain: B1 chain
light: B1 light with R24Q, S25A, Q27E, P28S, H39Q, Q42L, A48S, R50Q, G94Y
notes: as for B1
Turning to B30, the Kd amounted to 106 nM.

B31: TR01H102-E22Hh/none-Hi-Kn010G3/L0011-k0 (antibody, human IgG1, kappa, L234A L235A, N297A)
heavy: B1 heavy with Y62F, S106G
chain: B1 chain
light: B1 light with P29L, I38L
notes: as for B1
B31 yielded a Kd of 85.4 nM.

B32: TR01H104-E22Hh/none-Hi-Kn010G3/L0011-k0 (antibody, human IgG1, kappa, L234A L235A, N297A)
heavy: B1 heavy with Y62I, S106G
chain: B1 chain
light: B1 light with P29L, I38L
notes: as for B1
As for B32, binding was characterised by a dissociation constant (Kd) of 82.6 nM.

B33: TR01H070-E22Hh/none-Hi-Kn010G3/L0000-k0 (antibody, human IgG1, kappa, L234A L235A, N297A)
heavy: B1 heavy with L11V, R16G, A111Y
chain: B1 chain
light: B1 light with P28S, P29L, I38L
notes: as for B1
B33 yielded a Kd of 120 nM.
